66 molecules from patent US7067619 (LA JOLLA CANCER RESEARCH FOUNDATION, dated 2006) can be followed below.

Sequence of αvβ5 integrin isolated from human placental extract (P06756 31-1048, chain 1 of 2): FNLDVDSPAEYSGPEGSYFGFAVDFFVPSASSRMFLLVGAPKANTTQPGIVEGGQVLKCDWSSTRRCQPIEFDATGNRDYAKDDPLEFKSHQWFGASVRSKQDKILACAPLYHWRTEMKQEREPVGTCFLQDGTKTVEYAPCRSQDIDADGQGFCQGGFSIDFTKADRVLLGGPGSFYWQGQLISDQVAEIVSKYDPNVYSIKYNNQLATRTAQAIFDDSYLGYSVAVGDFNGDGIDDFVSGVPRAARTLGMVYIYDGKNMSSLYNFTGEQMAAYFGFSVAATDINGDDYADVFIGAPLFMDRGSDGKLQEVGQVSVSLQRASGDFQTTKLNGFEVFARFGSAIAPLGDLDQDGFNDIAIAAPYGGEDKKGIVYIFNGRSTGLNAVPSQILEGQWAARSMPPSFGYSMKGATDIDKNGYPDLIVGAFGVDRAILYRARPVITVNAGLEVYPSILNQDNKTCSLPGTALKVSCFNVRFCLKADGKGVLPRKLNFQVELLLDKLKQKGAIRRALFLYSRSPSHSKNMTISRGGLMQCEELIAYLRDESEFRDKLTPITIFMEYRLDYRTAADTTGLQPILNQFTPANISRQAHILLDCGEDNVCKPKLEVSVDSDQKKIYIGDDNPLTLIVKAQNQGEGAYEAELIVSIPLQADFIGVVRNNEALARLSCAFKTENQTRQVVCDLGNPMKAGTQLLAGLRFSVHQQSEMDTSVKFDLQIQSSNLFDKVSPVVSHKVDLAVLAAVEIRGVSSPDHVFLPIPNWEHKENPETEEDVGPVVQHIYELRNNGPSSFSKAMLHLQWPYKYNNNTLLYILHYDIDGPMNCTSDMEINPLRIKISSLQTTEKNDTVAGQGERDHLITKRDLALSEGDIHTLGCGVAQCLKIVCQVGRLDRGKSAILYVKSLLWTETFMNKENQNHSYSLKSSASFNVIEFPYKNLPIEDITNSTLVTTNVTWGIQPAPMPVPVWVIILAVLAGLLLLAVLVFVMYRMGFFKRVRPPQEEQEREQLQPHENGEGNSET
Sequence of αvβ5 integrin isolated from human placental extract (P18084 24-799, chain 2 of 2): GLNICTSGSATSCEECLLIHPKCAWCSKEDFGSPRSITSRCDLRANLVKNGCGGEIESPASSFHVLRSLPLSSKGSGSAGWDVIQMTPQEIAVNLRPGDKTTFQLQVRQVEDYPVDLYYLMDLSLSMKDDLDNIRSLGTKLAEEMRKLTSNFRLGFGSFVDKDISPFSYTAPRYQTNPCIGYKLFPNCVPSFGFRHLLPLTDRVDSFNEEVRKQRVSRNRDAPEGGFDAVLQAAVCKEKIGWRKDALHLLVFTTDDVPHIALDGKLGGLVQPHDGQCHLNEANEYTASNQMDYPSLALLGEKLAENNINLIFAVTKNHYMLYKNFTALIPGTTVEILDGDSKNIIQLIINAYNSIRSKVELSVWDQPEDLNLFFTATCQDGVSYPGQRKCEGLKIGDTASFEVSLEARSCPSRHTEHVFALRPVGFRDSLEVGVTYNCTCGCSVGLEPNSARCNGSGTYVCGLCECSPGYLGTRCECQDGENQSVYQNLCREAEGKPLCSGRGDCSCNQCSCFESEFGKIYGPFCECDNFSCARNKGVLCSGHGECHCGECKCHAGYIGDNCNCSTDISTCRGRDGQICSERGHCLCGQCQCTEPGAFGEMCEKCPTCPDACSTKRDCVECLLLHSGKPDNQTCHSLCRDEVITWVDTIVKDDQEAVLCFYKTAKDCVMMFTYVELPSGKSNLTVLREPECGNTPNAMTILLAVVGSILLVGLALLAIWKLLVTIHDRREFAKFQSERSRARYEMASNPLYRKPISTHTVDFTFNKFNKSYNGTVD

For the first assay, the target named is T1, αvβ3 integrin isolated from human placental extract (human, UniProt P06756 31-1048; P05106 27-788).
T1 construct: isolated on GRGDSPK-Sepharose; said to be primarily αvβ3
T1 sequence (P06756 31-1048, chain 1 of 2): as the sequence (P06756 31-1048, chain 1 of 2) above
T1 sequence (P05106 27-788, chain 2 of 2): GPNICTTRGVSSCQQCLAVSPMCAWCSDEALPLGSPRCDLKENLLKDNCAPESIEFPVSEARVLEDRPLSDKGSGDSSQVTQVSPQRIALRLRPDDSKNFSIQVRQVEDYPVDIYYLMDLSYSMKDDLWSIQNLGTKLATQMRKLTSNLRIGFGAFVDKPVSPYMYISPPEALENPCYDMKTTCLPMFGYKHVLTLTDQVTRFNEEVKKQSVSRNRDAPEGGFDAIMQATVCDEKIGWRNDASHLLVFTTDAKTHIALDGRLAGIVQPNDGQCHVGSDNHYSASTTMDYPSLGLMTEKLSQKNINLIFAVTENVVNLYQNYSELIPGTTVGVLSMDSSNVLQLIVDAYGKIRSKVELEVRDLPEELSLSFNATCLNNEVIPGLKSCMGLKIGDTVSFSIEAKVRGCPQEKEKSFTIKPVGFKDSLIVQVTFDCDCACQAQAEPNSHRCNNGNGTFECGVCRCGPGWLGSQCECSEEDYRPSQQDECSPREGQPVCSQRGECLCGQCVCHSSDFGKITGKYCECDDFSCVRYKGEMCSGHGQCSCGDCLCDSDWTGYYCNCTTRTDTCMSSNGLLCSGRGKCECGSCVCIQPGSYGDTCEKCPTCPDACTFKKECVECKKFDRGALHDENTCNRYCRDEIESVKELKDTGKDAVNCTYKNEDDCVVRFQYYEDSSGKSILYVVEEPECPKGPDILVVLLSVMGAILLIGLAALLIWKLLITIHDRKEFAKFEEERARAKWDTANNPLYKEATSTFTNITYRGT
As to the kind of experiment: phage panning on coated integrin. On the procedure: (§1) In the first panning, the integrins were coated at 5 µg per well, and the library pool was incubated for 4 hours at 25° C. in TBS buffer containing 1% bovine serum albumin and 1 mM MnCl_2 (α_5β_1, α_vβ_3) 1 mM MgCl_2 ($\alphaIIb\beta_3$) or 1 mM CaCl_2 (α_vβ_5).
Turning to CRGDKGWNC (on fuse 5 phage, fused to pIII) [CRGDKGWNC phage], the binding result is “binds”.
Still for that read-out and setting: under CRGDHGTLC (on fuse 5 phage, fused to pIII) [CRGDHGTLC phage] stands “binds”; under CPDLLAQSC (on fuse 5 phage, fused to pIII) [CPDLLAQSC phage], “binds”.
For the molecule CLRGDRVC (on fuse 5 phage, fused to pIII) [CLRGDRVC phage], the binding result was “binds”.
The same measure, in the same setting: under CNARGDGFC (on fuse 5 phage, fused to pIII) [CNARGDGFC phage] stands “binds”; under CEVRGDRIC (on fuse 5 phage, fused to pIII) [CEVRGDRIC phage], “binds”; under CKTPGRLDC (on fuse 5 phage, fused to pIII) [CKTPGRLDC phage], “binds”.
Same read-out and setting: under CRGDSLRC (on fuse 5 phage, fused to pIII) [CRGDSLRC phage] stands “binds”; under CLRRGDSGC (on fuse 5 phage, fused to pIII) [CLRRGDSGC phage], “binds”.
Take CQARGDRPRC (on fuse 5 phage, fused to pIII) [CQARGDRPRC phage]: the binding result was “binds”.
Same read-out and setting: under CNIRGDKIC (on fuse 5 phage, fused to pIII) [CNIRGDKIC phage] stands “binds”; under CSRGDTYLC (on fuse 5 phage, fused to pIII) [CSRGDTYLC phage], “binds”.
On the same count and under the same terms, the value for CTTRGDSFC (on fuse 5 phage, fused to pIII) [CTTRGDSFC phage] was “binds”.
Still for that read-out and setting: under CTTRSDSFC (on fuse 5 phage, fused to pIII) [CTTRSDSFC phage] stands “binds”; under CPSRGDALC (on fuse 5 phage, fused to pIII) [CPSRGDALC phage], “binds”; under CARRLDAPC (on fuse 5 phage, fused to pIII) [CARRLDAPC phage], “binds”.
Regarding CWRGDTPC (on fuse 5 phage, fused to pIII) [CWRGDTPC phage], the binding result is recorded as “binds”.
Still for that read-out and setting: under CNRRGDNWGC (on fuse 5 phage, fused to pIII) [CNRRGDNWGC phage] stands “binds”; under CTRGDSIFC (on fuse 5 phage, fused to pIII) [CTRGDSIFC phage], “binds”; under CLSRGDVVC (on fuse 5 phage, fused to pIII) [CLSRGDVVC phage], “binds”.
Still for that read-out and setting: under CLVLPSTGC (on fuse 5 phage, fused to pIII) [CLVLPSTGC phage] stands “binds”.
Regarding CRGDSFVGC (on fuse 5 phage, fused to pIII) [CRGDSFVGC phage], the binding result is “binds”.
On the same count and under the same terms, under CGRGDSHHC (on fuse 5 phage, fused to pIII) [CGRGDSHHC phage] stands “binds”; under CRGDTVYAC (on fuse 5 phage, fused to pIII) [CRGDTVYAC phage], “binds”.
The same measure, in the same setting: under CGRGDLIHC (on fuse 5 phage, fused to pIII) [CGRGDLIHC phage] stands “binds”.
Same read-out and setting: under CISRGDTFC (on fuse 5 phage, fused to pIII) [CISRGDTFC phage (αvβ3 selection)] stands “binds”.
CRVRGDSWC (on fuse 5 phage, fused to pIII) [CRVRGDSWC phage]: the binding result is recorded as “binds”.
Same read-out and setting: under CRGDSHLQC (on fuse 5 phage, fused to pIII) [CRGDSHLQC phage] stands “binds”; under CRGDNTFGC (on fuse 5 phage, fused to pIII) [CRGDNTFGC phage], “binds”; under CRGDGRNC (on fuse 5 phage, fused to pIII) [CRGDGRNC phage], “binds”.
On to CWRGDRAC (on fuse 5 phage, fused to pIII) [CWRGDRAC phage], for which the binding result is recorded as “binds”.
CSRGDGRC (on fuse 5 phage, fused to pIII) [CSRGDGRC phage]: the binding result is on record as “binds”.
Same read-out and setting: the value for CVTRGDHFC (on fuse 5 phage, fused to pIII) [CVTRGDHFC phage] was “binds”; that for CNARGDKLC (on fuse 5 phage, fused to pIII) [CNARGDKLC phage] was “binds”.
Still for that read-out and setting: under CRGDLAWVC (on fuse 5 phage, fused to pIII) [CRGDLAWVC phage] stands “binds”.
CRGDAWPGC (on fuse 5 phage, fused to pIII) [CRGDAWPGC phage]: the binding result is recorded as “binds”.
As for CWSISPYFC (on fuse 5 phage, fused to pIII) [CWSISPYFC phage], the binding result was “binds”.
Same read-out and setting: the value for CAGRGDALC (on fuse 5 phage, fused to pIII) [CAGRGDALC phage] was “binds”.
On the same count and under the same terms, the value for CSPRGDAGC (on fuse 5 phage, fused to pIII) [CSPRGDAGC phage] was “binds”.
Still for that read-out and setting: under CRGDGIRFC (on fuse 5 phage, fused to pIII) [CRGDGIRFC phage] stands “binds”; under CTRRGDATC (on fuse 5 phage, fused to pIII) [CTRRGDATC phage], “binds”.
Consider CDRGDSQSC (on fuse 5 phage, fused to pIII) [CDRGDSQSC phage], for which the binding result is listed as “binds”.
On the same count and under the same terms, the value for CFRGDDRKC (on fuse 5 phage, fused to pIII) [CFRGDDRKC phage] was “binds”.
Take CVRRGDAFC (on fuse 5 phage, fused to pIII) [CVRRGDAFC phage]: the binding result is “binds”.
On the same count and under the same terms, the value for CPRGDSTLC (on fuse 5 phage, fused to pIII) [CPRGDSTLC phage] was “binds”.
Turning to CSRGDGAIC (on fuse 5 phage, fused to pIII) [CSRGDGAIC phage], the binding result is recorded as “binds”.
Regarding CLRGDIANC (on fuse 5 phage, fused to pIII) [CLRGDIANC phage], the binding result is listed as “binds”.
Still for that read-out and setting: under CYSLGFLVC (on fuse 5 phage, fused to pIII) [CYSLGFLVC phage] stands “binds”.
Same read-out and setting: under CTRGDSLDC (on fuse 5 phage, fused to pIII) [CTRGDSLDC phage] stands “binds”.

The target in a further assay is αvβ5 integrin isolated from human placental extract (human, UniProt P06756 31-1048; P18084 24-799). In words: phage panning on coated integrin. As for the experimental part:
as §1
For the molecule CEMRGDTFC (on fuse 5 phage, fused to pIII) [CEMRGDTFC phage], the binding result is reported as “binds”.
For CRGDTYLIC (on fuse 5 phage, fused to pIII) [CRGDTYLIC phage], the binding result was “binds”.
On the same count and under the same terms, the value for CDLRGDTYC (on fuse 5 phage, fused to pIII) [CDLRGDTYC phage] was “binds”.
For CISRGDTFC (on fuse 5 phage, fused to pIII) [CISRGDTFC phage (αvβ5 selection)], the binding result is given as “binds”.
Same read-out and setting: the value for CRGDVFLC (on fuse 5 phage, fused to pIII) [CRGDVFLC phage] was “binds”; that for CVTRGDNFC (on fuse 5 phage, fused to pIII) [CVTRGDNFC phage] was “binds”; that for CVLRGDNFC (on fuse 5 phage, fused to pIII) [CVLRGDNFC phage] was “binds”.
On the same count and under the same terms, the value for CLVRGDSLC (on fuse 5 phage, fused to pIII) [CLVRGDSLC phage] was “binds”; that for CELRGDSAC (on fuse 5 phage, fused to pIII) [CELRGDSAC phage] was “binds”.
With CWTRGDSFC (on fuse 5 phage, fused to pIII) [CWTRGDSFC phage], the binding result is “binds”.
Still for that read-out and setting: the value for CGRGDTPTC (on fuse 5 phage, fused to pIII) [CGRGDTPTC phage] was “binds”; that for CHTRGDTFC (on fuse 5 phage, fused to pIII) [CHTRGDTFC phage] was “binds”; that for CVRRGDVFC (on fuse 5 phage, fused to pIII) [CVRRGDVFC phage] was “binds”.
For the molecule CEGRGDSFC (on fuse 5 phage, fused to pIII) [CEGRGDSFC phage], the binding result is “binds”.
On the same count and under the same terms, the value for CEPRGDSFC (on fuse 5 phage, fused to pIII) [CEPRGDSFC phage] was “binds”.
Still for that read-out and setting: the value for CVVRGDTFC (on fuse 5 phage, fused to pIII) [CVVRGDTFC phage] was “binds”; that for CYARGDSFC (on fuse 5 phage, fused to pIII) [CYARGDSFC phage] was “binds”.
